Test results published in US20050163769A1 (AbbVie / Abbott, published 2005).

Assays:
[1] = biological target: T1, recombinant soluble recombinant human α5β1 integrin-Fc fusion protein (human, UniProt P08648 42-995; P05556 21-728, limits assumed); test: competition ELISA on coated α5β1 integrin-Fc; competitor: biotinylated IIA1
T1 construct: Coated on ELISA plates at 1.0 µg/ml; The construct's limits and the Fc are not described; not shown: Fc part
Protocol: (§1) Wells of 96-well ELISA plates (Nunc-Immuno MaxiSorp plate, NalgeNunc, Naperville, Ill.) were coated with 100 μl of 1.0 μg/ml recombinant soluble recombinant human α5β1 integrin-Fc fusion protein in 0.2 M sodium carbonate-bicarbonate buffer (pH 9.4) overnight at 4° C. After washing with Wash Buffer (PBS containing 0.1% Tween 20), wells were blocked with 200 μl of Superblock Blocking Buffer (Pierce) for 30 min and then washed with Wash Buffer. A mixture of biotinylated murine IIA1 (0.1 μg/test) and competitor antibody (duplicates of serial 3-fold dilutions of competitior antibodies starting at 5 mg/ml) in ELISA Buffer (PBS containing 1% BSA and 0.1% Tween 20) was applied to ELISA plates in a final volume of 100 μl per well. ELISA plates were incubated for 1 hr at room temperature and the wells were washed with Wash Buffer. Then, […] of 1/1,000-diluted HRP-conjugated streptavidin (Pierce, Rockford, Ill.) in ELISA Buffer was applied to each well. After incubating for 0.5 hr at room temperature and washing with Wash Buffer, 100 μl of TMB substrate was added to each well. Absorbance was read at 450 nm using a VERSAmax microplate reader (Molecular Devices, Menlo Park, Calif.). Final competitor concentration in the reaction was plotted versus absorbance at 450 nm.

[2] = biological target: T1, recombinant soluble recombinant human …; test: competition ELISA: plate coated with human α5β1 integrin-Fc, unlabelled antibody titrated against biotinylated murine IIA1, streptavidin-HRP, O.D. 450
Protocol: as §1

AAB1/B2Fc [3] = biological target: T2, AAB1/B2Fc; test: SPR (BIAcore), Fab immobilized by amine coupling, AAB1/B2Fc as analyte, 24° C
T2 construct: Analyte in the BIAcore experiment
Protocol: (§2) Affinities between AAB1/B2Fc and IIA1, M200 or F200 were analyzed using BIAcore 3000 and 2000 (BIAcore, Sweden). IIA1, M200 or F200 was immobilized on the Pioneer F 1 chip using standard amine coupling kit (BIAcore). Surface plasmon resonance was measured at a flow rate of 50 ul/min at 24° C. Injection of AAB1/B2Fc (association phase) occurs over 180 seconds. Dissociation was subsequently monitored over 3 hours. Kinetics of binding were calculated from data acquired at five different concentrations of analyte (320 nM, 160 nM, 80 nM, 40 nM, 20 nM), using the BIAevaluation program. Double-referencing was applied to eliminate responses from reference surface and buffer only control. KD was obtained by simultaneously fitting the association and dissociation phases of the sensorgram from the analyte concentration series.

AAB1/B2Fc [4] = biological target: T2, AAB1/B2Fc; test: SPR (BIAcore), antibody immobilized by amine coupling, AAB1/B2Fc as analyte, 24° C
Protocol: as §2

T1 sequence (P08648 42-995 limits assumed, chain 1 of 2): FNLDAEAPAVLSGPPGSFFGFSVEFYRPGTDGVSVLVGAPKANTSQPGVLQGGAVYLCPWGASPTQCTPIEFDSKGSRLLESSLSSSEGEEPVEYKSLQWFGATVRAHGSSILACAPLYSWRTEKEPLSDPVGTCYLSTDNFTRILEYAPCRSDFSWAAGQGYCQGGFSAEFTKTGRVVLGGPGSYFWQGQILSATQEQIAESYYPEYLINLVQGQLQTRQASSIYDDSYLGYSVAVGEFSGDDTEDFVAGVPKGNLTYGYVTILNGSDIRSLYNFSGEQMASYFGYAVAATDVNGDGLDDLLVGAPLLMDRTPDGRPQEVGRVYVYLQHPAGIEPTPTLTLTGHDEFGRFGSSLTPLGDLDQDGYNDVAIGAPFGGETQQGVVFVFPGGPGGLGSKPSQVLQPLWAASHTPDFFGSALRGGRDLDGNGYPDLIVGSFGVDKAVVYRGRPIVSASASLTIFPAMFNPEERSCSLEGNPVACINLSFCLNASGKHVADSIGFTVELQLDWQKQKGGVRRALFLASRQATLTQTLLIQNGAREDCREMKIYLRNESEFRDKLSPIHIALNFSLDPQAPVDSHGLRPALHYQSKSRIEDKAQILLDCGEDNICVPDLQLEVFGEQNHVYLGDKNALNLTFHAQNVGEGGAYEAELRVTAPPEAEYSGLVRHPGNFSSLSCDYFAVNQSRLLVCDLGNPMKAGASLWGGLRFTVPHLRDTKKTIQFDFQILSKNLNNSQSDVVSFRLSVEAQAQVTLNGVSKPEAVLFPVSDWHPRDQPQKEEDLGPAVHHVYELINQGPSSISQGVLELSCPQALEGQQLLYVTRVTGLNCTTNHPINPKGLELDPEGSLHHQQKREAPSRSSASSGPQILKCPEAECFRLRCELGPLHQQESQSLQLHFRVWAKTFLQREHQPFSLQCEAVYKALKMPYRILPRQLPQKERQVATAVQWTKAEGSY
T1 sequence (P05556 21-728 limits assumed, chain 2 of 2): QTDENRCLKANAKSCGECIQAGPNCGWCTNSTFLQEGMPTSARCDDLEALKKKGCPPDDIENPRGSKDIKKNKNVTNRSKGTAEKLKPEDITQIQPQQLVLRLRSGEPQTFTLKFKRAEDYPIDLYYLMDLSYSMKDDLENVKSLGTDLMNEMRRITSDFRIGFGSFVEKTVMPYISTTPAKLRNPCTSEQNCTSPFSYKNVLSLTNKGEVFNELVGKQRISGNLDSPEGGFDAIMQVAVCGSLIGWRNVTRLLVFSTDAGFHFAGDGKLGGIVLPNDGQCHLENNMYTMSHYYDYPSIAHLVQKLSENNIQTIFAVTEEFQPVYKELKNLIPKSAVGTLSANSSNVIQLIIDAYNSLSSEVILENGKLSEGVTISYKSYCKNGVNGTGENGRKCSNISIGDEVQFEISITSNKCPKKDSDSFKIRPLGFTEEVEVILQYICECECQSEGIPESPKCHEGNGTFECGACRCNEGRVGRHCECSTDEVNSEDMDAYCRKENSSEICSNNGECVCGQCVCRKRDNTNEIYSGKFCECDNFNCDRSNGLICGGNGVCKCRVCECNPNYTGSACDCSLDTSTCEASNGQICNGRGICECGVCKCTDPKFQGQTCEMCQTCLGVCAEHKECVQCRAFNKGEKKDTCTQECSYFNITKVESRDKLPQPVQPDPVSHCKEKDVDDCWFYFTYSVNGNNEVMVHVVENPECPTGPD

B1: IIA1, mouse anti-human α5β1 integrin antibody (antibody, V domains shown)
VH: QVQLKESGPGLVAPSQSLSITCTISGFSLTDYGVHWVRQPPGKGLEWLVVIWSDGSSTYNSALKSRMTIRKDNSKSQVFLIMNSLQTDDSAMYYCARHGTYYGMTTTGDALDYWGQGTSVTVSS
VL: QIVLTQSPAIMSASLGERVTMTCTASSSVSSNYLHWYQQKPGSAPNLWIYSTSNLASGVPARFSGSGSGTSYSLTISSMEAEDAATYYCHQYLRSPPTFGGGTKLEIKR
notes: Mouse monoclonal antibody (Pharmingen); also called murine IIA1; M100
- IC50 [1]: 79.1 µg/mL
- IC50 (read off the curve) [2]: ~0.02 µg

B2: F200, Fab fragment of M200 (Fab, V domains shown)
VH: QVQLKESGPGLVAPSQSLSITCTISGFSLTDYGVHWVRQPPGKGLEWLVVIWSDGSSTYNSALKSRMTIRKDNSKSQVFLIMNSLQTDDSAMYYCARHGTYYGMTTTGDALDYWGQGTSVTVSS
VL: QIVLTQSPAIMSASLGERVTMTCTASSSVSSNYLHWYQQKPGSAPNLWIYSTSNLASGVPARFSGSGSGTSYSLTISSMEAEDAATYYCHQYLRSPPTFGGGTKLEIKR
notes: Made by papain digestion of M200 IgG
- Kd (AAB1/B2Fc [3]): 0.332 nM

B3: M200 chimeric anti-α5β1 integrin antibody (antibody, human IgG4, kappa, V domains shown)
VH: QVQLKESGPGLVAPSQSLSITCTISGFSLTDYGVHWVRQPPGKGLEWLVVIWSDGSSTYNSALKSRMTIRKDNSKSQVFLIMNSLQTDDSAMYYCARHGTYYGMTTTGDALDYWGQGTSVTVSS
VL: QIVLTQSPAIMSASLGERVTMTCTASSSVSSNYLHWYQQKPGSAPNLWIYSTSNLASGVPARFSGSGSGTSYSLTISSMEAEDAATYYCHQYLRSPPTFGGGTKLEIKR
notes: Mouse/human chimeric IgG4/kappa; also called 200-M; 200-4 EOS
- IC50 [1]: 106 µg/mL
- Kd (AAB1/B2Fc [4]): 0.367 nM
- IC50 (read off the curve) [2]: ~0.02 µg

B4: HuM200, humanized M200 with IgG4 constant region (antibody, V domains shown)
VH: EVQLVESGGGLVQPGGSLRLSCAASGFSLTDYGVHWVRQAPGKGLEWLVVIWSDGSSTYNSALKSRMTISKDNAKNTVYLQMNSLRAEDTAVYYCARHGTYYGMTTTGDALDYWGQGTLVTVSS
VL: EIVLTQSPATLSLSPGERATLSCTASSSVSSNYLHWYQQKPGQAPRLLIYSTSNLASGVPARFSGSGSGTSYTLTISSLEPEDFAVYYCHQYLRSPPTFGGGTKVEIKR
notes: Humanized IgG4; also called HuM200-G4; huM200-G4
- IC50 [1]: 132 µg/mL
- IC50 (read off the curve) [2]: ~0.02 µg

B5: HuM200-g2 m3G, humanized M200 with IgG2 constant region (antibody, V domains shown)
VH: EVQLVESGGGLVQPGGSLRLSCAASGFSLTDYGVHWVRQAPGKGLEWLVVIWSDGSSTYNSALKSRMTISKDNAKNTVYLQMNSLRAEDTAVYYCARHGTYYGMTTTGDALDYWGQGTLVTVSS
VL: EIVLTQSPATLSLSPGERATLSCTASSSVSSNYLHWYQQKPGQAPRLLIYSTSNLASGVPARFSGSGSGTSYTLTISSLEPEDFAVYYCHQYLRSPPTFGGGTKVEIK
notes: Same variable domains as HuM200 with a constant region of IgG2
- IC50 [1]: 103 µg/mL
- IC50 (read off the curve) [2]: ~0.02 µg
